Measurements from publication PMC7643134.

Target: Hydroxynitrile lyase from Parafontaria laminata millipedes, purified from the millipedes (PlamHNL-N) (Parafontaria laminata)
Test: SEC

stoichiometry N: 2
Substance: Hydroxynitrile lyase from Parafontaria laminata millipedes, purified from the millipedes (PlamHNL-N) (enzyme)
